Experimental data from patent US12365732 (23ANDME, dated 2025).
Where a chain is given by its changes, count along the chain named. Names and notes keep the numbering of the source.

What was measured:
[1] = target: T1, hu-CD96 isoform 1 on HEK293T cells (human, UniProt P40200 22-585); experiment: FACS, Ab 2 nM
T1 construct: Origene RC213845, transient expression; also called HEK293T-CD96 (iso1)
T1 sequence: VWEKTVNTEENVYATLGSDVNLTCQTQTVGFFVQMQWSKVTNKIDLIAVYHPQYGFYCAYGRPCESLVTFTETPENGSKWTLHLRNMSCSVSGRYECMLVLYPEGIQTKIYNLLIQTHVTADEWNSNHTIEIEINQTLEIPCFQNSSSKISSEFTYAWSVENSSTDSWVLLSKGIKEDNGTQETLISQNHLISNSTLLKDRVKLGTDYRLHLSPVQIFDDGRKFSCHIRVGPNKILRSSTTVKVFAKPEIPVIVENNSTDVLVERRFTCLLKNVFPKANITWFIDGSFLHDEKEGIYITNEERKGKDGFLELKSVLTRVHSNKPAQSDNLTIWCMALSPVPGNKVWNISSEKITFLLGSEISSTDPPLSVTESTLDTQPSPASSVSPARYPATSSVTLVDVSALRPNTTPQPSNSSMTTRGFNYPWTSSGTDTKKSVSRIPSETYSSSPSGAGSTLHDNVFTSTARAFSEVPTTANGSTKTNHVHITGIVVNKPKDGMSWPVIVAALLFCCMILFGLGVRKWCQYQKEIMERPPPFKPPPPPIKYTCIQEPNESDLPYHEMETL
Method: (§1) Isoform 1 of hu-CD96 (Origene, catalog #RC213845) was transiently expressed in HEK293T cells following standard lipofectamine or Fugene transfection protocol. […] Cells were washed, and binding was detected by incubation with anti-mouse IgG-FITC (Biolegend, catalog #406001) for 20 minutes at 4° C. Cell binding was analyzed by flow cytometry with a CytoFLEX (Beckman Coulter). Binding curves were calculated as a percentage of cells positive for bound antibody.

[2] = target: T2, hu-CD96 isoform 2 on CHO cells (human, UniProt P40200 22-585); experiment: FACS, Ab 2 nM
T2 construct: also called CHO-CD96 (isoform 2); CD96-CHOs
T2 sequence: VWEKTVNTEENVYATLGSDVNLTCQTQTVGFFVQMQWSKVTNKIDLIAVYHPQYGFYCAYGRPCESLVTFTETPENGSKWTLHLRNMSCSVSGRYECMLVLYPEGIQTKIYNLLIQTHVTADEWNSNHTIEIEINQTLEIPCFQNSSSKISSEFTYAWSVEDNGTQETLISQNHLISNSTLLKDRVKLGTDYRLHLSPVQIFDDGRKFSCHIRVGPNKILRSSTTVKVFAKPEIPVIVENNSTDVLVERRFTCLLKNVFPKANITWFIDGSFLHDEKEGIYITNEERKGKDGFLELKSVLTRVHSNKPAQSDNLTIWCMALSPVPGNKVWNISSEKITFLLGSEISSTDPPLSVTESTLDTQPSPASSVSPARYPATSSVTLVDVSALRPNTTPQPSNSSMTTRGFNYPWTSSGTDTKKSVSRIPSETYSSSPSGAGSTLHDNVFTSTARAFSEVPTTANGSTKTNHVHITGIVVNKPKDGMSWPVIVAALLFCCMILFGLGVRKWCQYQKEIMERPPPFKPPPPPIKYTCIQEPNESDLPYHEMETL
Method: as §1
Isoform 2 of hu-CD96 (DNA construct: Origene, catalog #RC221005) was expressed on a single-cell-clone-derived CHO stable cell line. Binding of the anti-CD96 antibodies to the CHO cells were determined as described above with isoform 1 of hu-CD96.

[3] = target: T3, cynomolgus monkey CD96 on cynomolgus monkey PBMCs (cynomolgus monkey, UniProt A0A2K5TWV6 22-569); experiment: FACS, Ab 0.128 nM
T3 construct: whole, on cells
T3 sequence: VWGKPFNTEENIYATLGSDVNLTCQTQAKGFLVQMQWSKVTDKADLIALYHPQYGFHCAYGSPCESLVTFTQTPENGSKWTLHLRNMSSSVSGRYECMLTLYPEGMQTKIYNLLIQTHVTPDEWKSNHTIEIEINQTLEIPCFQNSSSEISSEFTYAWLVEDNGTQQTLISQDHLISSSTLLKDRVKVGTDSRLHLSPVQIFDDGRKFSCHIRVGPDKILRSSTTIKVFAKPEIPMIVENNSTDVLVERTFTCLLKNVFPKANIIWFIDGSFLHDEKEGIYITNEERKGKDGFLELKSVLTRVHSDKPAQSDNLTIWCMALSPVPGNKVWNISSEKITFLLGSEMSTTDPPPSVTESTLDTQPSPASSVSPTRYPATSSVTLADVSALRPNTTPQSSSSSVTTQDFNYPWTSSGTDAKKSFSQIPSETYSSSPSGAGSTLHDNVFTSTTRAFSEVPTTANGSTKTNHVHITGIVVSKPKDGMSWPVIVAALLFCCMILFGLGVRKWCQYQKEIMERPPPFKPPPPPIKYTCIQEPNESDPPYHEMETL
Method: (§2) The ability of the anti-CD96 antibodies to bind primary immune cells from human and cynomolgus monkey with lower level of receptor expression was measured. Human PBMCs (StemCell Technologies, catalog #70025) and cynomolgus monkey PBMCs (Primate Biologicals, catalog #CM-MC) were incubated with human TruStain FcX (Biolegend, catalog #422302) for 10 minutes at 4° C., followed by incubation with an anti-CD96 antibody for 20 minutes at 4° C. Cells were washed and the anti-CD96 antibody binding was detected by incubation with anti-mouse IgG-PE (Thermo Fisher, catalog #M30204) or anti-human IgG (Fab) 2-PE (Thermo Fisher, catalog #H10104) for 20 minutes at 4° C. Cells were washed, and immune subtypes were labeled with anti-CD3 (BD, catalog #557705), anti-CD4 (Biolegend, catalog #317424) and anti-CD8 (BD, catalog #557760) for 20 minutes at 4° C. Cell binding was analyzed by flow cytometry with a CytoFLEX (Beckman Coulter). Binding curves were calculated as a percentage of cells positive for bound antibody in the cell type of interest.

[4] = target: T3, cynomolgus monkey CD96 on cynomolgus …; experiment: FACS, Ab 80 nM
Method: as §2

B1: mAb1.v7 IgG (humanized 12F8) (antibody, V domains shown)
VH: EVQLVQSGAEVKKPGASVKVSCKASGFTFTNNWMHWVRQAPGQGLEWIGMIHPNSGITNINEKFKNRVTMTTDTSTSTAYMELRSLRSEDTAVYYCRSDGTYEGYFDYWGQGTLVTVSS
VL: DIQLTQSPSSLSASVGDRVTITCKASQNVGTAIVWYQQKPGKAPKVLIYSASTRYTGVPSRFSGSGSGTDFTLTISSLQPEDFATYYCQQYSSSPLTFGQGTKVEIKG
notes: human IgG1 N297G
[1]
  % positive: 27.3%
[2]
  % positive: 42.4%

B2: mAb1.v7.NGS10 IgG (antibody, V domains shown)
VH: B1 VH with W33F, M50F, P53A, T101I
VL: B1 VL
notes: human IgG1 N297G
[3]
  % positive: 64.6%
[4]
  % positive: 75.2%

B3: mAb1.v7.NGS11 IgG (antibody, V domains shown)
VH: B1 VH with W33F, M50F, P53A, T101V
VL: B1 VL
notes: human IgG1 N297G
[3]
  % positive: 63.5%
[4]
  % positive: 81.9%

B4: mAb1.v7.NGS9 IgG (antibody, V domains shown)
VH: B1 VH with W33F, P53A, T101V
VL: B1 VL
notes: human IgG1 N297G
[3]
  % positive: 49.4%
[4]
  % positive: 73.8%

B5: 10G1 (clone 10G1.3G8), purified hybridoma antibody (antibody, V domains shown)
VH: QIQLVQSGPELKKPGETVKISCKASGYPFTTYGMSWVKQAPGKGLKWMGWINTDSGVPTYADDFKGRFAFSLETSANTAYLQINSLKNEDAATYFCARNIYYGWGNFDYWGQGTILTVSS
VL: DILMTQSPTTLSVTPGETVSLSCRASQDIYRNLHWYQQKSQGTPRLLIKHASDSISGIPSRFTGSGSGTDFTLSINSVKPEDEGIYYCLQGYSMPYTFGGGTKLEIK
notes: murine hybridoma IgG
[1]
  % positive: 48.1%
[2]
  % positive: 34.9%

B6: 7E5, purified hybridoma antibody (antibody, V domains shown)
VH: QVQLKESGPGLVAPSQSLSIICTVSGFSLTNYGIHWIRQPPGKGLEWLGIIWAGGSTNYNSALMSRLTISKDNSKSQVFLKMNSLQTNDTAIYYCARVSMMGFAYWGQGTLVTVSA
VL: QAVVTQESALTTSPGETVTLTCRSSTGAVTTSNYANWVQEKPDHLFTGLIGGTNNRAPGVPARFSGSLIGDKAALTITGAQTEDEAIYFCSLWYGSHWVFGGGTKLTVL
notes: murine hybridoma IgG
[1]
  % positive: 37.1%
[2]
  % positive: 53.3%

B7: h10G1 IgG (humanized 10G1) (antibody, V domains shown)
VH: EIQLVQSGSELKKPGASVKVSCKASGYPFTTYGMSWVRQAPGQGLEWMGWINTDSGVPTYADDFKGRFVFSLDTSVSTAYLQISSLKAEDTAVYFCARNIYYGWGNFDYWGQGTLVTVSS
VL: EIVMTQSPDFQSVTPKEKVTITCRASQDIYRNLHWYQQKPDQTPKLLIKHASDSISGIPSRFSGSGSGTDFTLTINSLEAEDAAAYYCLQGYSMPYTFGGGTKVEIKG
notes: human IgG1 N297G
[3]
  % positive: 38.2%
[4]
  % positive: 68.3%

B8: 9H4, purified hybridoma antibody (antibody, V domains shown)
VH: EVQLLETGGGLVKSGGSLKLSCAASGFTFSDYYMYWVRQTPEKRLEWVAAISDDGTYTYYPDSVKGRFTISRDNANNYLYLQMSSLKSEDTAIYYCAKAGSYDYFDVWGAGTTVTVSS
VL: DIVLTQSPASLAVSLGQRAIISCKASQSVTFADTGLMHWYQQKPGQQPKLLIYRASNLEVGVPTRFSGSGSGTDFTLNIHPVEEEDVATYYCQQSREYPWTFGGGTKLEIK
notes: murine hybridoma IgG
[1]
  % positive: 28.5%
[2]
  % positive: 44.2%
